For orientation: Km means the concentration of substrate that gives half-maximal velocity. One may read the kcat as the number of substrate molecules converted per active site and unit of time at saturation. A word on the kcat/Km: it is the second-order rate constant that governs catalysis at low substrate concentration.

Data set [1] relates to NCCCP(=O)(O)OP(=O)(O)OC[C@H]1O[C@@H](n2ccc(N)nc2=O)[C@H](O)[C@@H]1O. Briefly: steady-state kinetics. Type of data set: biochemical, Streptomyces rubellomurinus.
Data set [2] deals with Nc1ccn([C@@H]2O[C@H](COP(=O)(O)OP(=O)(O)CCCNO)[C@@H](O)[C@H]2O)c(=O)n1. Kind of data set: steady-state kinetics. Type of data set: biochemical, Streptomyces rubellomurinus.

On to FrbF (Streptomyces rubellomurinus), for which, in data set [1], the Km was determined as 35.2 ± 3.2 µM, the catalytic constant (kcat) worked out at 0.0577 ± 0.00267 s⁻¹ and the kcat/Km was 1630 M⁻¹ s⁻¹. Moreover, in data set [2], the Km came to 52.3 ± 3.0 µM, the kcat is 0.034 ± 0.00717 s⁻¹ and the kcat/Km worked out at 650 M⁻¹ s⁻¹.

For the origin of these results see PMC2819980.
